# Results reported in the supplement of paper PMC11246515.
# ± gives the standard deviation of the averaged measurements.
# Experiment: total protein half-life in vivo (active degradation + dilution); higher = more stable protein
# [1] = E. coli NCM3722 delta-clpP delta-lon delta-hslV, growth: N-lim chemostat, doubling time 6 h
# [2] = E. coli NCM3722 delta-clpP, growth: N-lim chemostat, doubling time 6 h
# [3] = E. coli NCM3722 delta-hslV, growth: N-lim chemostat, doubling time 6 h
# [4] = E. coli NCM3722 delta-lon, growth: N-lim chemostat, doubling time 6 h
# [5] = E. coli NCM3722 delta-smpB, growth: N-lim chemostat, doubling time 6 h
# [6] = wild type E. coli NCM3722, growth: C-lim chemostat, doubling time 3 h
# [7] = wild type E. coli NCM3722, growth: C-lim chemostat, doubling time 6 h
# [8] = wild type E. coli NCM3722, growth: C-lim chemostat, doubling time 12 h
# [9] = wild type E. coli NCM3722, growth: N-lim chemostat, doubling time 6 h
# [10] = wild type E. coli NCM3722, growth: N-lim chemostat, doubling time 12 h
# [11] = wild type E. coli NCM3722, growth: P-lim chemostat, doubling time 6 h
# [12] = wild type E. coli NCM3722, growth: P-lim chemostat, doubling time 12 h
Sequence,total protein half-life in vivo [1] [h],total protein half-life in vivo [2] [h],total protein half-life in vivo [3] [h],total protein half-life in vivo [4] [h],total protein half-life in vivo [5] [h],total protein half-life in vivo [6] [h],total protein half-life in vivo [7] [h],total protein half-life in vivo [8] [h],total protein half-life in vivo [9] [h],total protein half-life in vivo [10] [h],total protein half-life in vivo [11] [h],total protein half-life in vivo [12] [h]
MSDMAERLALHEFTENAYLNYSMYVIMDRALPFIGDGLKPVQRRIVYAMSELGLNASAKFKKSARTVGDVLGKYHPHGDSACYEAMVLMAQPFSYRYPLVDGQGNWGAPDDPKSFAAMRYTESRLSKYSELLLSELGQGTADWVPNFDGTLQEPKMLPARLPNILLNGTTGIAVGMATDIPPHNLREVAQAAIALIDQPKTTLDQLLDIVQGPDYPTEAEIITSRAEIRKIYENGRGSVRMRAVWKKEDGAVVISALPHQVSGARVLEQIAAQMRNKKLPMVDDLRDESDHENPTRLVIVPRSNRVDMDQVMNHLFATTDLEKSYRINLNMIGLDGRPAVKNLLEILSEWLVFRRDTVRRRLNYRLEKVLKRLHILEGLLVAFLNIDEVIEIIRNEDEPKPALMSRFGLTETQAEAILELKLRHLAKLEEMKIRGEQSELEKERDQLQGILASERKMNNLLKKELQADAQAYGDDRRSPLQEREEAKAMSEHDMLPSEPVTIVLSQMGWVRSAKGHDIDAPGLNYKAGDSFKAAVKGKSNQPVVFVDSTGRSYAIDPITLPSARGQGEPLTGKLTLPPGATVDHMLMESDDQKLLMASDAGYGFVCTFNDLVARNRAGKALITLPENAHVMPPVVIEDASDMLLAITQAGRMLMFPVSDLPQLSKGKGNKIINIPSAEAARGEDGLAQLYVLPPQSTLTIHVGKRKIKLRPEELQKVTGERGRRGTLMRGLQRIDRVEIDSPRRASSGDSEE [P0AFI2],5.85 ± 0.14,6.82 ± 1.4,3.67 ± 0.47,3.93 ± 0.34,3.2 ± 0.17,2.44 ± 0.17,3.745 ± 0.031,5.99 ± 0.32,3.42 ± 0.22,5.17 ± 0.29,2.947 ± 0.025,5.43 ± 0.56
MSDMHSLLIAAILGVVEGLTEFLPVSSTGHMIIVGHLLGFEGDTAKTFEVVIQLGSILAVVVMFWRRLFGLIGIHFGRPLQHEGESKGRLTLIHILLGMIPAVVLGLLFHDTIKSLFNPINVMYALVVGGLLLIAAECLKPKEPRAPGLDDMTYRQAFMIGCFQCLALWPGFSRSGATISGGMLMGVSRYAASEFSFLLAVPMMMGATALDLYKSWGFLTSGDIPMFAVGFITAFVVALIAIKTFLQLIKRISFIPFAIYRFIVAAAVYVVFF,,> 8,,6.08,5.89,> 4,,11.9,,,6.83 ± 0.96,
MSDNIRVGLIGYGYASKTFHAPLIAGTPGQELAVISSSDETKVKADWPTVTVVSEPKHLFNDPNIDLIVIPTPNDTHFPLAKAALEAGKHVVVDKPFTVTLSQARELDALAKSLGRVLSVFHNRRWDSDFLTLKGLLAEGVLGEVAYFESHFDRFRPQVRDRWREQGGPGSGIWYDLAPHLLDQAITLFGLPVSMTVDLAQLRPGAQSTDYFHAILSYPQRRVILHGTMLAAAESARYIVHGSRGSYVKYGLDPQEERLKNGERLPQEDWGYDMRDGVLTRVEGEERVEETLLTVPGNYPAYYAAIRDALNGDGENPVPASQAIQVMELIELGIESAKHRATLCLA,5.37 ± 0.71,4.69 ± 0.12,4.729 ± 0.033,5.58 ± 0.43,4.176 ± 0.0077,3.26 ± 0.26,5.54 ± 0.26,9.43 ± 2.6,5.05 ± 0.36,10.5 ± 0.45,5.48 ± 0.27,13.8 ± 0.79
MSDQLQMTDGMHIIVEALKQNNIDTIYGVVGIPVTDMARHAQAEGIRYIGFRHEQSAGYAAAASGFLTQKPGICLTVSAPGFLNGLTALANATVNGFPMIMISGSSDRAIVDLQQGDYEELDQMNAAKPYAKAAFRVNQPQDLGIALARAIRVSVSGRPGGVYLDLPANVLAATMEKDEALTTIVKVENPSPALLPCPKSVTSAISLLAKAERPLIILGKGAAYSQADEQLREFIESAQIPFLPMSMAKGILEDTHPLSAAAARSFALANADVVMLVGARLNWLLAHGKKGWAADTQFIQLDIEPQEIDSNRPIAVPVVGDIASSMQGMLAELKQNTFTTPLVWRDILNIHKQQNAQKMHEKLSTDTQPLNYFNALSAVRDVLRENQDIYLVNEGANTLDNARNIIDMYKPRRRLDCGTWGVMGIGMGYAIGASVTSGSPVVAIEGDSAFGFSGMEIETICRYNLPVTIVIFNNGGIYRGDGVDLSGAGAPSPTDLLHHARYDKLMDAFRGVGYNVTTTDELRHALTTGIQSRKPTIINVVIDPAAGTESGHITKLNPKQVAGN [P0AFI0],5.61 ± 0.33,,,,3.08,> 4,3.11,,,,4.43,9.26 ± 0.98
MSDRIDRDVINALIAGHFADPFSVLGMHKTTAGLEVRALLPDATDVWVIEPKTGRKLAKLECLDSRGFFSGVIPRRKNFFRYQLAVVWHGQQNLIDDPYRFGPLIQEMDAWLLSEGTHLRPYETLGAHADTMDGVTGTRFSVWAPNARRVSVVGQFNYWDGRRHPMRLRKESGIWELFIPGAHNGQLYKYEMIDANGNLRLKSDPYAFEAQMRPETASLICGLPEKVVQTEERKKANQFDAPISIYEVHLGSWRRHTDNNFWLSYRELADQLVPYAKWMGFTHLELLPINEHPFDGSWGYQPTGLYAPTRRFGTRDDFRYFIDAAHAAGLNVILDWVPGHFPTDDFALAEFDGTNLYEHSDPREGYHQDWNTLIYNYGRREVSNFLVGNALYWIERFGIDALRVDAVASMIYRDYSRKEGEWIPNEFGGRENLEAIEFLRNTNRILGEQVSGAVTMAEESTDFPGVSRPQDMGGLGFWYKWNLGWMHDTLDYMKLDPVYRQYHHDKLTFGILYNYTENFVLPLSHDEVVHGKKSILDRMPGDAWQKFANLRAYYGWMWAFPGKKLLFMGNEFAQGREWNHDASLDWHLLEGGDNWHHGVQRLVRDLNLTYRHHKAMHELDFDPYGFEWLVVDDKERSVLIFVRRDKEGNEIIVASNFTPVPRHDYRFGINQPGKWREILNTDSMHYHGSNAGNGGTVHSDEIASHGRQHSLSLTLPPLATIWLVREAE,6.52 ± 0.61,5.72 ± 0.24,6.65 ± 0.44,6.1 ± 0.46,6.35 ± 0.16,2.98 ± 0.15,6.06 ± 0.42,13.2 ± 0.43,5.95 ± 0.2,12.2 ± 2.1,6.35 ± 0.33,12.1 ± 1.9
MSDTNYAVIYDLHSHTTASDGCLTPEALVHRAVEMRVGTLAITDHDTTAAIAPAREEISRSGLALNLIPGVEISTVWENHEIHIVGLNIDITHPLMCEFLAQQTERRNQRAQLIAERLEKAQIPGALEGAQRLAQGGAVTRGHFARFLVECGKASSMADVFKKYLARGKTGYVPPQWCTIEQAIDVIHHSGGKAVLAHPGRYNLSAKWLKRLVAHFAEHHGDAMEVAQCQQSPNERTQLAALARQHHLWASQGSDFHQPCPWIELGRKLWLPAGVEGVWQLWEQPQNTTEREL,4.2 ± 0.46,2.69 ± 0.6,2,4.05 ± 1.8,1.76 ± 0.21,1.42 ± 0.78,3.06,5.96,2.24 ± 0.19,2.55 ± 0.59,2.72,4.57 ± 0.45
MSDTTELVDLAVIFPDLEIELKYACADNITGKAIYQQARCLLHKDAITALAKSISIAQLSGLQLVIYDAYRPQQAQAMLWQACPDPQYVVDVTVGSNHSRGTAIDLTLRDEHGNILDMGAGFDEMHERSHAYHPSVPPAAQRNRLLLNAIMTGGGFVGISSEWWHFELPQAASYPLLADQFSCFISPGTQHVS,5.51 ± 0.24,1.76,2.69 ± 0.14,3.64 ± 0.33,1.89 ± 0.17,0.884,1.97 ± 0.47,,2.72 ± 0.22,4.71 ± 0.84,,
MSDVAETLDPLRLPLQGERLIEASAGTGKTFTIAALYLRLLLGLGGSAAFPRPLTVEELLVVTFTEAATAELRGRIRSNIHELRIACLRETTDNPLYERLLEEIDDKAQAAQWLLLAERQMDEAAVFTIHGFCQRMLNLNAFESGMLFEQQLIEDESLLRYQACADFWRRHCYPLPREIAQVVFETWKGPQALLRDINRYLQGEAPVIKAPPPDDETLASRHAQIVARIDTVKQQWRDAVGELDALIESSGIDRRKFNRSNQAKWIDKISAWAEEETNSYQLPESLEKFSQRFLEDRTKAGGETPRHPLFEAIDQLLAEPLSIRDLVITRALAEIRETVAREKRRRGELGFDDMLSRLDSALRSESGEVLAAAIRTRFPVAMIDEFQDTDPQQYRIFRRIWHHQPETALLLIGDPKQAIYAFRGADIFTYMKARSEVHAHYTLDTNWRSAPGMVNSVNKLFSQTDDAFMFREIPFIPVKSAGKNQALRFVFKGETQPAMKMWLMEGESCGVGDYQSTMAQVCAAQIRDWLQAGQRGEALLMNGDDARPVRASDISVLVRSRQEAAQVRDALTLLEIPSVYLSNRDSVFETLEAQEMLWLLQAVMTPERENTLRSALATSMMGLNALDIETLNNDEHAWDVVVEEFDGYRQIWRKRGVMPMLRALMSARNIAENLLATAGGERRLTDILHISELLQEAGTQLESEHALVRWLSQHILEPDSNASSQQMRLESDKHLVQIVTIHKSKGLEYPLVWLPFITNFRVQEQAFYHDRHSFEAVLDLNAAPESVDLAEAERLAEDLRLLYVALTRSVWHCSLGVAPLVRRRGDKKGDTDVHQSALGRLLQKGEPQDAAGLRTCIEALCDDDIAWQTAQTGDNQPWQVNDVSTAELNAKTLQRLPGDNWRVTSYSGLQQRGHGIAQDLMPRLDVDAAGVASVVEEPTLTPHQFPRGASPGTFLHSLFEDLDFTQPVDPNWVREKLELGGFESQWEPVLTEWITAVLQAPLNETGVSLSQLSARNKQVEMEFYLPISEPLIASQLDTLIRQFDPLSAGCPPLEFMQVRGMLKGFIDLVFRHEGRYYLLDYKSNWLGEDSSAYTQQAMAAAMQAHRYDLQYQLYTLALHRYLRHRIADYDYEHHFGGVIYLFLRGVDKEHPQQGIYTTRPNAGLIALMDEMFAGMTLEEA,5.03 ± 0.26,4.28 ± 0.35,3.64 ± 0.075,3.84 ± 0.3,3.72 ± 0.33,3.13 ± 0.34,5.03 ± 0.71,13.2 ± 3.9,3.87 ± 0.3,5.71 ± 0.92,6.9 ± 0.91,10.4 ± 0.56
MSDVLRPYRDLFPQIGQRVMIDDSSVVIGDVRLADDVGIWPLVVIRGDVHYVQIGARTNIQDGSMLHVTHKSSYNPDGNPLTIGEDVTVGHKVMLHGCTIGNRVLVGMGSILLDGAIVEDDVMIGAGSLVPQNKRLESGYLYLGSPVKQIRPLSDEEKAGLRYSANNYVKWKDEYLDQGNQTQP [P0A9W9],,5.73 ± 1.7,5.34 ± 1.1,5.32 ± 0.6,4.72 ± 0.17,3.04 ± 0.14,,10 ± 2,5.36 ± 0.53,8.69 ± 0.58,6.25 ± 0.13,14.3 ± 1.3
MSEAEARPTNFIRQIIDEDLASGKHTTVHTRFPPEPNGYLHIGHAKSICLNFGIAQDYKGQCNLRFDDTNPVKEDIEYVESIKNDVEWLGFHWSGNVRYSSDYFDQLHAYAIELINKGLAYVDELTPEQIREYRGTLTQPGKNSPYRDRSVEENLALFEKMRAGGFEEGKACLRAKIDMASPFIVMRDPVLYRIKFAEHHQTGNKWCIYPMYDFTHCISDALEGITHSLCTLEFQDNRRLYDWVLDNITIPVHPRQYEFSRLNLEYTVMSKRKLNLLVTDKHVEGWDDPRMPTISGLRRRGYTAASIREFCKRIGVTKQDNTIEMASLESCIREDLNENAPRAMAVIDPVKLVIENYQGEGEMVTMPNHPNKPEMGSRQVPFSGEIWIDRADFREEANKQYKRLVLGKEVRLRNAYVIKAERVEKDAEGNITTIFCTYDADTLSKDPADGRKVKGVIHWVSAAHALPVEIRLYDRLFSVPNPGAADDFLSVINPESLVIKQGFAEPSLKDAVAGKAFQFEREGYFCLDSRHSTAEKPVFNRTVGLRDTWAKVGE,5.89 ± 0.95,5.11 ± 0.2,4.97 ± 0.059,5.31 ± 0.48,4.92 ± 0.16,3.11 ± 0.31,6.39 ± 0.22,11.47 ± 0.028,5.25 ± 0.2,9.02 ± 0.47,5.959 ± 0.047,12.1 ± 0.73
